Data: article PMC3328272, “HIV-1 Nef interaction influences the ATP-binding site of the Src-family kinase, Hck” (BMC Chemical Biology, 2012)

What was measured:
[1] = target: wild-type mouse Hck SH3 domain (mouse) (UniProt P08103); assay: HDX-MS; SH3 (50 uM) and Nef-Consensus (117 uM) equilibrated at 4 C for at least 110 min in 20 mM Tris-HCl pH 8.3, 100 mM NaCl, 3 mM DTT; 15-fold dilution into D2O buffer; intact-protein MS; SH3 cooperative unfolding rate free and with Nef (slowdown factor)
[2] = target: mouse Hck SH3 domain with High Affinity RT loop (HART) (mouse) (UniProt P08103); assay: as above
[3] = target: wild-type mouse Hck SH3 domain (mouse) (UniProt P08103); assay: SPR
[4] = target: wild-type human Hck SH3 domain (human) (UniProt P08631); assay: SPR
Sequence of wild-type human Hck SH3 domain (human) (P08631 78-138): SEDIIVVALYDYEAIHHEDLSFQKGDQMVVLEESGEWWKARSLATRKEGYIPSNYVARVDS

[5] = target: mouse Hck SH3 domain with High Affinity RT loop (HART) (mouse) (UniProt P08103); assay: SPR

Sequence of wild-type mouse Hck SH3 domain (mouse) (P08103 76-136): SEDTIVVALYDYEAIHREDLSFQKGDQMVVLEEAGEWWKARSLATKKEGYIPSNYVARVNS
Sequence of HIV-1 Nef-SF2, untagged (P03407 whole entry): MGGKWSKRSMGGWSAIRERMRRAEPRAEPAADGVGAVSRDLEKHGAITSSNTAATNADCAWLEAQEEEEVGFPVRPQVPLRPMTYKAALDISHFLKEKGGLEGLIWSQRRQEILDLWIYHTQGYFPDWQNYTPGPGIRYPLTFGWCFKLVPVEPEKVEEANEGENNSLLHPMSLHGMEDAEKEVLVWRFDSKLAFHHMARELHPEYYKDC

Substance | fold decrease in SH3 unfolding rate with Nef (slowdown factor) [1] [fold] | fold decrease in SH3 unfolding rate with Nef (slowdown factor) [2] [fold] | Kd [3] [nM] | koff [3] [s⁻¹] | kon [3] [M⁻¹ s⁻¹] | Kd [4] [nM] | koff [4] [s⁻¹] | kon [4] [M⁻¹ s⁻¹] | Kd [5] [nM] | koff [5] [s⁻¹] | kon [5] [M⁻¹ s⁻¹]
HIV-1 Nef-Consensus, untagged | 5.7 | 50 | 80 | 0.0185 | 241000 | 120 | 0.118 | 1e+06 | 20 | 0.0324 | 1.57e+06
HIV-1 Nef-SF2, untagged (from UniProt P03407) (natural protein) | – | – | – | – | – | – | – | – | 10 | 0.0143 | 1.42e+06
